Results on 1 substance are retold here after patent US5637476.

The data set addresses T1, SfiI modification methylase (M.SfiI) (Streptomyces fimbriatus) (UniProt O52513).
T1 sequence: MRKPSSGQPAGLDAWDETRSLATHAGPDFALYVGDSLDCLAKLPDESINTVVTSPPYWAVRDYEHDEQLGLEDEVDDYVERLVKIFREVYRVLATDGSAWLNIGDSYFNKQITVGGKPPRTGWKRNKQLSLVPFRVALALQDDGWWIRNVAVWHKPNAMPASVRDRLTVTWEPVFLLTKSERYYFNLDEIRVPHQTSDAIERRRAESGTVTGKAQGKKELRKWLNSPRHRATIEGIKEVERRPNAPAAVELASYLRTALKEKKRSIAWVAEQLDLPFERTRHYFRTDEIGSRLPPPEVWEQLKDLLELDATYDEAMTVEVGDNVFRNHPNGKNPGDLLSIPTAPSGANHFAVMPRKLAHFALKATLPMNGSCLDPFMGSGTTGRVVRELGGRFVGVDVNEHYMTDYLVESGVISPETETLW
Kind of data set: inhibition. The note with it: protection from SfiI cleavage; 10 mM EDTA, 0.1 mM AdoMet, 37 C; 0.3M and 0.5M KCl fractions.

In the case of T4 DNA, the activity turned out to be 2500 units/ml.
